± gives the standard deviation.
Assay: protein stability index of a GFP-peptide fusion (GPS, HEK-293T) (PSI 1-6); higher = more stable
Settings: c terminus: a fixed tail appended
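Also: 24-mer peptide tiles fused after GFP, lentivirally expressed, FACS-sorted into six equal bins by GFP/DsRed ratio, decoded by Illumina sequencing, PSI is the read-weighted mean bin number.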

| Sequence | protein stability index (treatment: MLN4924 1 uM, 8 h) | protein stability index (treatment: DMSO) |
| --- | --- | --- |
| PPTSPEPPRSSPRQTPAPGPAREK [CEBPD] | 5.62 ± 0.089 |  |
| IEENITSAAPSNDQDGEYCPEVKL [SRPK2] | 5.49 ± 0.28 | 5.5 ± 0.17 |
| IQQGINAVNQEAMNNAQRIEKWVI [ACSBG2] | 2.94 ± 0.51 | 2.89 ± 0.44 |
| AQMAKAAAEERALFTDRMATRSTT [WEE1] | 4.87 ± 0.25 | 4.8 ± 0.21 |
| HFKKQTIYRFLKLHPRGKNNFSPL [FEM1C] | 1.96 ± 0.14 | 2.71 ± 0.32 |
| LESEGSPETLTNLRKGYLFMYNLV [HACD3] | 1.97 ± 0.27 | 2.02 ± 0.2 |
| IDSYDPSTGEVYCRVPNSGKDEIE [ALDH8A1] | 4.92 ± 0.2 | 4.97 ± 0.2 |
| YNILKTCRGHTLERSVFSERTEES [CARM1] | 2.56 ± 0.6 | 2.56 ± 0.5 |
| GCSAVSEPASESVVGALPAEHQFS [TRAF3IP2] | 4.6 ± 0.27 | 4.38 ± 0.34 |
| EHQYRLPPMGKAFQELAGKELCAM [SPDEF] | 3.23 ± 0.098 | 3.19 ± 0.26 |
| TKGEKIMLAIITKMTLTQVSTWFA [IRX6] | 2.95 ± 0.68 | 2.97 ± 0.5 |
| RQKREAAARKKYNLLQDSSTSDSD [C18orf25] | 5.18 ± 0.15 | 5.17 ± 0.25 |
| GDFDFDEVKFPNASDMFRRLRDAG [MYORG] | 3.98 ± 0.2 | 3.98 ± 0.16 |
| FAVFPSLNEEQTLQEVPTGLDSIS [ETS2] | 3.79 ± 0.39 | 3.81 ± 0.32 |
| DGSVVRDFEHRPKAPVVECSITGD [WDR88] | 5.32 ± 0.16 | 5.4 ± 0.21 |
| LSLLELLELLLDASALTLVLGGRR [SCNN1D] | 2.32 ± 0.56 | 2.99 ± 0.95 |
| NQKCQLRLLKTLETSRSHDLEAVV [ATP23] | 3.3 ± 0.2 | 3.14 ± 0.12 |
| LLESSSSYKNLTLKFHKLVNVTIH [MCOLN1] | 2.33 ± 0.55 | 2.58 ± 0.41 |
| KEETNHSEMAEDLCKIGSERSLVL [IKZF1] | 4.86 ± 0.28 | 4.69 ± 0.31 |
| RQDPRPHGPQLPTGIEGNWGRLLE [ZBED2] | 3.54 ± 0.32 | 3.68 ± 0.2 |
| YNNDIDYYAKRNALRAAEVWMDDF [GALNT9] | 2.99 ± 0.32 | 2.96 ± 0.076 |
| PALLFPATRGVPAKRLLDADDAAA [TRIB1] | 4.67 ± 0.27 | 4.74 ± 0.23 |
| LWASQREKEVLRRERAVEWRERAV [ZBED2] | 3.38 ± 0.11 | 3.15 ± 0.44 |

| Sequence | protein stability index (treatment: MLN4924 1 uM, 8 h) | protein stability index (treatment: DMSO) |
| --- | --- | --- |
| IVLNKINQILMEKYLKLQDTCRTQ [INTS3] | 3.24 ± 0.61 | 3.59 ± 0.83 |
| RQMHLARFLRMLLRLADEFGVAVV [RAD51] | 2.68 ± 0.28 | 2.55 ± 0.41 |
| PNNSCYSAGIAKLEEGDELQLAIP [TNFSF13B] | 4.59 ± 0.29 | 4.55 ± 0.12 |
| YYTFHFLYFKDKIFNVAIPRFHMA [FBXO3] | 2.81 ± 0.2 | 3.06 ± 0.48 |
| DHTSEAVRNLFGLDPSSGAIHVLG [PCDHGC5] | 3.09 ± 0.19 | 3.16 ± 0.24 |
| ALKEKEKASWSSLSMDEKVELYRI [COX4I1] | 3.95 ± 0.23 | 3.65 ± 0.27 |
| IRCVYILDPWFAGSSNVGINRWRF [CRY1] | 3.06 ± 0.51 | 3.13 ± 0.51 |
| LYQLEGNNQITCRNGQWSEPPKCL [CFHR2] | 2.98 ± 0.18 | 3.08 ± 0.29 |
| DLASAAAKQIMEETYKMEFMYSGV [INTS4] | 2.5 ± 0.16 | 2.58 ± 0.52 |
| YRFLLYGLHEGKRLGPLSAEGTTG [TNXB] | 2.29 ± 0.31 | 2.8 ± 0.62 |
| RLICDFPFDGLLEERALLLGRMGK [VPS39] | 2.28 ± 0.12 | 2.28 ± 0.25 |
| RREAVQRGRMPPTQPTHGQFALTN [NR2F2] | 3.99 ± 0.25 | 3.9 ± 0.29 |
| RTQEEKLEHVRALIKKYSDHLENV [TRIM55] | 3.56 ± 0.27 | 3.24 ± 0.31 |
| SQLSVLSLSGVMLTDVSPEPLQAL [PRAME] | 2.4 ± 0.3 | 2.36 ± 0.37 |
| PPLPTYHVLLEGEGLGQSLGNFKD [TRIM29] | 3.7 ± 0.14 | 3.8 ± 0.085 |
| DILWEHLEQMIKENQEKTEDQYEE [ETS2] | 5.22 ± 0.2 | 5.02 ± 0.21 |
| IIDYLEQTFLDERTPRLMPDKESM [GDAP1] | 2.82 ± 0.28 | 2.6 ± 0.27 |
| VNEKLPQREGTGKTVSLQIFSVLN [SMOC2] | 2.84 ± 0.4 | 2.7 ± 0.37 |
| RLKKVENIKIWLSLRSYLKRRGPQ [PHTF1] | 2.25 ± 0.64 | 2 ± 0.65 |
| CCVKTELLGEETPMAADEGSAEKQ [EHMT1] | 5.47 ± 0.12 | 5.45 ± 0.22 |
| LEATVKKLEESKQLLKNNEKLITW [SASS6] | 3.44 ± 0.62 | 2.73 ± 1.2 |
| RGCLHSHGLQEGKDLFTQRQNSAP [CDC25A] | 3.62 ± 0.33 | 3.72 ± 0.36 |
| APSCAIMISTYEFGKSFFQRLNQD [SLC25A39] | 2.06 ± 0.33 | 2.47 ± 0.86 |

| Sequence | protein stability index (treatment: MLN4924 1 uM, 8 h) | protein stability index (treatment: DMSO) |
| --- | --- | --- |
| PSVMDPGAFETVLASAYTGRLSMA [ZBTB22] | 2.3 ± 0.17 | 2.3 ± 0.38 |
| SDSMTDVPVDTGVAARTPAVEGLT [TPD52L2] | 5.26 ± 0.15 | 5.3 ± 0.29 |
| TRTAEPAESSVPPVTSIGIDNLGL [SLC35F2] | 4.49 ± 0.11 | 4.48 ± 0.27 |
| LSLNMDNLQDTLEAASFLQILPVL [KLHL13] | 2.72 ± 0.45 | 2.66 ± 0.52 |
| NSLITAPGEFSDASMSPDATKPSH [SMAD6] | 5.23 ± 0.18 | 5.07 ± 0.21 |
| SFVYGAVPIGASIYVIGDLDTGTN [GAN] | 2.29 ± 0.61 | 2.35 ± 0.32 |
| ERDRISTRRSSYEDSSLPSINALL [HNF4A] | 3.84 ± 0.49 | 3.79 ± 0.097 |
| ACRFQEDQEMARDLVERALYSMEC [TCF25] | 2.49 ± 0.53 | 2.34 ± 0.57 |
| GLSPYSDYEFRVVAVNNIGRGPPS [PTPRD] | 3.14 ± 0.033 | 2.41 ± 0.35 |
| EALAATWEQPWASEVFGPERMPPS [PXN] | 3.5 ± 0.47 | 3.33 ± 0.27 |
| RLSNNQRYLFLDGDSHYEIEIVHI [ZFYVE21] | 2.21 ± 0.53 | 3.21 ± 0.56 |
| KKIYAMGGGSYGKLFESVECYDPR [GAN] | 2.99 ± 0.17 | 2.94 ± 0.24 |
| FPGRPMGHLSKDVDENDSHEGEDQ [DLC1] | 5.06 ± 0.31 | 4.7 ± 0.38 |
| NGASWHTVAGSLNDFSYLHTNCFE [CPXM2] | 2.83 ± 0.23 | 2.68 ± 0.47 |
| IQFATPNDFCSFYNILKTCRGHTL [CARM1] | 2.24 ± 0.22 | 2.47 ± 0.41 |
| QYQQVPVEIVKSDFHKPFLGGFRH [IQUB] | 2.99 ± 0.49 | 2.7 ± 0.36 |
| TCTLLLLYSLAPTMGAVVLSSTLL [MFSD9] | 3.17 ± 0.28 | 3.22 ± 0.52 |
| PVQPGMLIDVCKYLGSLQYRVWKK [TRIM35] | 2.17 ± 0.29 | 2 ± 0.2 |
| ALRERWLLEGTPSSASEGDEDLRR [PALM] | 5.14 ± 0.21 | 5 ± 0.25 |
| VHLVIWLLLVAKMSVGHLRLLSHD [JAGN1] | 3.36 ± 0.63 | 3.39 ± 0.5 |
| MSEIRFTNLTWDQVITLDQVLDEV [TENT5D] | 2.31 ± 0.27 | 2.33 ± 0.33 |
| CGWPRGKDAPCYESDTDIYETVAA [DRICH1] | 3.31 ± 0.27 | 3.18 ± 0.23 |
| KPSFQSGGRRRPPASSRNRSPSGS [RBMY1A1] | 5.35 ± 0.32 | 4.93 ± 0.33 |

| Sequence | protein stability index (treatment: MLN4924 1 uM, 8 h) | protein stability index (treatment: DMSO) |
| --- | --- | --- |
| LMILRRVVNESTVCLMGHERRQTL [TENT5C] | 2.34 ± 0.32 | 2.33 ± 0.18 |
| SCPFFETSAAYRYYIDDVFHALVR [RIT1] | 2.54 ± 0.38 | 2.41 ± 0.36 |
| PIVNISEVLGPLCLMLLMGTVHCQ [PHTF1] | 3.17 ± 0.22 | 3.34 ± 0.24 |
| RVEESALRALREKLFAHSSDLLSE [PPEF2] | 3.27 ± 0.32 | 2.96 ± 0.49 |
| RQIVSGLKYLHEQEILHRDLKLGN [PLK2] | 2.7 ± 0.48 | 2.52 ± 0.21 |
| EANNLAAAASAKDIYYNNMEEVCG [ATL3] | 4.68 ± 0.18 | 4.69 ± 0.26 |
| TWKKNRRQLAYSTVGTPDYIAPEV [STK38L] | 3.48 ± 0.4 | 3.39 ± 0.2 |
| PGVHRRYSALREESAKDWETSPLP [PPFIA4] | 4.43 ± 0.27 | 4.04 ± 0.31 |
| ICGLQQDEEVSSLTCDALTELLAK [CCND2] | 3.74 ± 0.36 | 3.48 ± 0.29 |
| SAKDGGPQPPDAPQLVSSAREGSS [PLEKHN1] | 5.39 ± 0.17 | 5.49 ± 0.19 |
| FKRTIQGSIEYSCPASNECEITKR [ESRRA] | 4.19 ± 0.23 | 3.88 ± 0.23 |
| LSFQEELLYWGIAEDHLDGCCKRR [KCNG1] | 2.61 ± 0.26 | 2.35 ± 0.36 |
| RYAVVLNATWLVNSAAHLFGYRPY [SCD] | 3.05 ± 0.47 | 2.9 ± 0.65 |
| DQEQGSSFQMSEGSEAAVIPLDLG [FAM189A2] | 5.48 ± 0.17 | 5.34 ± 0.35 |
| ECGKAFSQSSYLSQHRRIHSGEKP [ZNF232] | 3.61 ± 0.15 | 3.57 ± 0.28 |
| WTSFICDTYIVLAWISKIKGSPDV [SMIM2] | 2.53 ± 0.38 | 3.52 ± 0.58 |
| NTEDWRPRPGTGQSRSFRILAHLT [PDLIM7] | 2.9 ± 0.22 | 2.81 ± 0.33 |
| QDFNTMFTNCYIYNKPTDDIVLMA [BRD3] | 2.23 ± 0.25 | 2.12 ± 0.28 |
| GYSTPADIWSTACMAFELATGDYL [SRPK2] | 2.54 ± 0.5 | 2.1 ± 0.33 |
| MATQADLMELDMAMEPDRKAAVSH [CTNNB1] | 4.95 ± 0.15 | 4.78 ± 0.19 |
| TPPPSPNTQTPVQPPPPPPPPPMQ [CCDC6] | 5.26 ± 0.25 | 5.12 ± 0.084 |
